In patent US20150258192A1, “COMPOSITIONS AND METHODS FOR PREVENTING OR TREATING CHRONIC LUNG ALLOGRAFT DYSFUNCTION (CLAD) AND IDIOPATHIC PULMONARY FIBROSIS (IPF)” (priority 2014, published 2015):
No end group written: not given here.

Key:
Test in all cases: Kinase Profiling Assay
Type in all cases: biochemical
Settings in all cases: peptide 100 μM
[1] = molecular target: CK2(h) (Homo sapiens, UniProt P68400)
How it was run: (§1)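 Kinase inhibition by MK2 inhibitory peptides was profiled radiometrically, with substrate phosphorylation from labeled ATP read by scintillation after capture on a charged filter. Values are relative to 100% activity and measured in duplicate.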

[2] = molecular target: EphA2(h) (Homo sapiens, UniProt P29317)
How it was run: as §1

[3] = molecular target: PKBγ(h) (Homo sapiens, UniProt Q9Y243)
How it was run: as §1

[4] = molecular target: Fes(h) (Homo sapiens, UniProt P07332)
How it was run: as §1

[5] = molecular target: T1, MSK2(h) (Homo sapiens, UniProt O75676)
T1 construct: purchased Millipore
How it was run: as §1

[6] = molecular target: Pim-3(h) (Homo sapiens, UniProt Q86V86)
How it was run: as §1

[7] = molecular target: CDK2/cyclinE(h) (Homo sapiens, UniProt P24941)
How it was run: as §1

[8] = molecular target: T2, Syk(h) (Homo sapiens, UniProt P43405)
T2 construct: purchased Millipore
How it was run: as §1

[9] = molecular target: T3, GRK6(h) (Homo sapiens, UniProt P43250)
T3 construct: purchased Millipore
How it was run: as §1

[10] = molecular target: T4, CHK1(h) (Homo sapiens, UniProt O14757)
T4 sequence (O14757 1-476): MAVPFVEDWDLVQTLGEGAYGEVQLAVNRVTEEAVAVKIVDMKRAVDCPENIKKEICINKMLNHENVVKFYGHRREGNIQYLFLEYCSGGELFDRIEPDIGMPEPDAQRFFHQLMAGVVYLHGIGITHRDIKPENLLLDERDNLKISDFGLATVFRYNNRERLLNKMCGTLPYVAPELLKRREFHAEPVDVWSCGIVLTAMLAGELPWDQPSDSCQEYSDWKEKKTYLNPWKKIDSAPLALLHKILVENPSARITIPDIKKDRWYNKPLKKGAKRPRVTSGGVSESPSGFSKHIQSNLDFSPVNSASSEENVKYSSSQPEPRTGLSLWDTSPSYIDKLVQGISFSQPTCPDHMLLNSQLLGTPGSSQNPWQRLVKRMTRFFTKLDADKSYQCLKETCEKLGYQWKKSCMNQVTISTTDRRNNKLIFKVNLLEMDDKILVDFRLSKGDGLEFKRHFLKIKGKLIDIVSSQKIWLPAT
How it was run: as §1

[11] = molecular target: T5, MKK6(h) (Homo sapiens, UniProt P52564)
T5 construct: purchased Millipore
T5 sequence (P52564 1-334): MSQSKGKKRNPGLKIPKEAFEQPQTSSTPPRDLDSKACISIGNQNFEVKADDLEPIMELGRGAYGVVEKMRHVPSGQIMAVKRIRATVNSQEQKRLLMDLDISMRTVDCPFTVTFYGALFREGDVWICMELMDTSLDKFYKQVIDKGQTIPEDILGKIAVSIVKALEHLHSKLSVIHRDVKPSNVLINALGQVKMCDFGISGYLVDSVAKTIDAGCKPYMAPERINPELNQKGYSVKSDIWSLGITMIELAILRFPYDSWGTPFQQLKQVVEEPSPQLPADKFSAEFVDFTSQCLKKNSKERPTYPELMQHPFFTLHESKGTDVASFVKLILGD
How it was run: as §1

[12] = molecular target: CDK2/cyclinA(h) (Homo sapiens, UniProt P24941)
How it was run: as §1

[13] = molecular target: T6, SAPK3(h) (Homo sapiens, UniProt P53778)
T6 construct: purchased Millipore
T6 sequence (P53778 1-367): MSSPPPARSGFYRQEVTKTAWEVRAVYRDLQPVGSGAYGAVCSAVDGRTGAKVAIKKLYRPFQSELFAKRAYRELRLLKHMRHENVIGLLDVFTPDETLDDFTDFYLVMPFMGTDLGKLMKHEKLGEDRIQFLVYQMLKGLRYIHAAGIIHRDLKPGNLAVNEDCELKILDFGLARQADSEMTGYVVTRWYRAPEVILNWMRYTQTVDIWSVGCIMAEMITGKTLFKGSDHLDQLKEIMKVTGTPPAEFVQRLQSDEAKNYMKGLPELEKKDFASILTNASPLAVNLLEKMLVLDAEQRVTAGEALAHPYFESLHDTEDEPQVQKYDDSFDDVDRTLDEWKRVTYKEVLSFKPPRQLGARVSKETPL
How it was run: as §1

PKBγ(h), sequence (Q9Y243 whole entry): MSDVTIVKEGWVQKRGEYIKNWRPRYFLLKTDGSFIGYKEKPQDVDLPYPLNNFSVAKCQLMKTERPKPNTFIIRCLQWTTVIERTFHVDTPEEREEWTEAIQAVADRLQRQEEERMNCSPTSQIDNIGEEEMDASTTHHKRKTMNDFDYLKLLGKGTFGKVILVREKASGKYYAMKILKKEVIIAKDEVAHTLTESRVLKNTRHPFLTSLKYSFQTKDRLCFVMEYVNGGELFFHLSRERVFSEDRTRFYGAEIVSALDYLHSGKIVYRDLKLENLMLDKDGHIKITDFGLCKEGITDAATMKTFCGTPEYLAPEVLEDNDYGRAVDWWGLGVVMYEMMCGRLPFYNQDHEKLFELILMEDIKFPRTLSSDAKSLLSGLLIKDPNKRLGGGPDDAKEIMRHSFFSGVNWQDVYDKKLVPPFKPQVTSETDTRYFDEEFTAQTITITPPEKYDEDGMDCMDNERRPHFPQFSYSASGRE
Fes(h), sequence (P07332 whole entry): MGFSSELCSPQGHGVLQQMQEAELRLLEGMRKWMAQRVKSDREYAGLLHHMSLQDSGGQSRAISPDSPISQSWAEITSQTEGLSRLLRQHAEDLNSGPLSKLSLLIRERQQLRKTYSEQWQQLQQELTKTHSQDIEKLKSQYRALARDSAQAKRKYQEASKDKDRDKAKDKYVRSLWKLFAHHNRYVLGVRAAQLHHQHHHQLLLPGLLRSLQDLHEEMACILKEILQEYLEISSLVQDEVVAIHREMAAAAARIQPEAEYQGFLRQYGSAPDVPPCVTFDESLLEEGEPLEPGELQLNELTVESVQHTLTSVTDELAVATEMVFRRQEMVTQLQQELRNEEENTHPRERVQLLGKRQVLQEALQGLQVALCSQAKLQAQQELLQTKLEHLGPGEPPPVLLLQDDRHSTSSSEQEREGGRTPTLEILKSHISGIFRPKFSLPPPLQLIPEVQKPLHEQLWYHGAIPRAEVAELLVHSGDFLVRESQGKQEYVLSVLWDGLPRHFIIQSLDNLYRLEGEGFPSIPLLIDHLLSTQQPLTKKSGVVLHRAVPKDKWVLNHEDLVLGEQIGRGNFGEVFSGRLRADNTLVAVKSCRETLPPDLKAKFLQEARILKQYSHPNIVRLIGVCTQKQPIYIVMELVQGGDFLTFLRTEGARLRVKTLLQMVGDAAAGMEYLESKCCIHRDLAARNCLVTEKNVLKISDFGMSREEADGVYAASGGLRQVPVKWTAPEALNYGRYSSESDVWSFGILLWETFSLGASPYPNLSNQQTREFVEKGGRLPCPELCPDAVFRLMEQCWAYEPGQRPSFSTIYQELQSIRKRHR
T3 sequence (P43250 whole entry): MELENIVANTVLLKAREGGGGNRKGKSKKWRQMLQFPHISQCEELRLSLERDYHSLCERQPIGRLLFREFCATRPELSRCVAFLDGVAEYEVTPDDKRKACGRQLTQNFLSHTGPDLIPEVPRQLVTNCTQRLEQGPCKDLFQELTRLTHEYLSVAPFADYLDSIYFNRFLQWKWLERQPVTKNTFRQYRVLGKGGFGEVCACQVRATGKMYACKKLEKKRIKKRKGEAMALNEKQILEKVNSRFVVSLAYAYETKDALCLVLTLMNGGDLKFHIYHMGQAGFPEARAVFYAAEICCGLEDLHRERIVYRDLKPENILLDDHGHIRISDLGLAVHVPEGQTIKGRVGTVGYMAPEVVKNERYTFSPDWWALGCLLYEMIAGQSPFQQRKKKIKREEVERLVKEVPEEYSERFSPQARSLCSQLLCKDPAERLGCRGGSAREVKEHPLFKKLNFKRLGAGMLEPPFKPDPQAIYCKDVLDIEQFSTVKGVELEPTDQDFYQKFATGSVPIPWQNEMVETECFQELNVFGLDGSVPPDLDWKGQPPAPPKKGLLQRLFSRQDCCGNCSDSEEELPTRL
T1 sequence (O75676 whole entry): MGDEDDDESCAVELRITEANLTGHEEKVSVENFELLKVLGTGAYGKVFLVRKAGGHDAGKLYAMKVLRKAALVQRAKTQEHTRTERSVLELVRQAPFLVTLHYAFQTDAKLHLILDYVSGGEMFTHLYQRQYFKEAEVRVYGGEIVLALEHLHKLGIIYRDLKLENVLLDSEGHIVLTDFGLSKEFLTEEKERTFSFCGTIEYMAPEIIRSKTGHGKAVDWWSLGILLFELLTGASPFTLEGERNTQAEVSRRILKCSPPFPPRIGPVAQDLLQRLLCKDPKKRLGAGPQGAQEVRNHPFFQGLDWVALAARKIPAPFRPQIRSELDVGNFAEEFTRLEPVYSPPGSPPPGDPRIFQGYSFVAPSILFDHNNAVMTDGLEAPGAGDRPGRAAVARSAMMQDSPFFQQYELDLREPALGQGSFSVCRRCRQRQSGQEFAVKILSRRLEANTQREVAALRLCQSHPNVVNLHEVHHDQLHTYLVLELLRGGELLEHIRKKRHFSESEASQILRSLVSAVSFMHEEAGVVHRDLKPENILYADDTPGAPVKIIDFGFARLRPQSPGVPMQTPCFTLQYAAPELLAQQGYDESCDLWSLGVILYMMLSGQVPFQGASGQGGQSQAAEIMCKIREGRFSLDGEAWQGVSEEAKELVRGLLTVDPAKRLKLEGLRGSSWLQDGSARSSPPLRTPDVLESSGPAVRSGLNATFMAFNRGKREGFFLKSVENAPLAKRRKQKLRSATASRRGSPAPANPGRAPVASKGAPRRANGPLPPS
CK2(h), sequence (P68400 whole entry): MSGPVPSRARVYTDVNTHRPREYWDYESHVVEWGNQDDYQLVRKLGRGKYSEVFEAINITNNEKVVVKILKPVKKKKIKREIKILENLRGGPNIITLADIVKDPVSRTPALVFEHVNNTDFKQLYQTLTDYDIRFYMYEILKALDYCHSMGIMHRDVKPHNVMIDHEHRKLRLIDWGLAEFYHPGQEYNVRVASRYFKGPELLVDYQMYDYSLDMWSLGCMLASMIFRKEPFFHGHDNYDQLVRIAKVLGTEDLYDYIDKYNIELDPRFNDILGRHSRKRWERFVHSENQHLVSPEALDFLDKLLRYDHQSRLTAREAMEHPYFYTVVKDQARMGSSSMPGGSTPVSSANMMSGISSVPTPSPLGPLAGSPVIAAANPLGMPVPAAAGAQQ
CK2(h), sequence (P67870 whole entry partner): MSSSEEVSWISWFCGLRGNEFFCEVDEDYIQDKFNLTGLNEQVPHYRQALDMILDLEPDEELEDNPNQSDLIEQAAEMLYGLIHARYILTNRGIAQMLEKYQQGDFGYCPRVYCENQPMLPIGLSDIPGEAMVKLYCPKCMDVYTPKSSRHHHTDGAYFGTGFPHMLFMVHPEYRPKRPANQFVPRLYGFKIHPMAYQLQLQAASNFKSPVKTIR

Sequence: FAKLAARLYRKALARQLGVAA [MMI-0300]
- % activity [1]: 90%
- % activity [2]: 31%
- % activity [3]: 20%
- % activity [4]: 20%
- % activity [5]: 56%
- % activity [6]: 80%
- % activity [7]: 94%
- % activity [8]: 24%
- % activity [9]: 147%
- % activity [10]: 91%
- % activity [11]: 48%
- % activity [12]: 86%
- % activity [13]: 84%

Sequence: HRRIKAWLKKIKALARQLGVAA (Mammal) [MMI-0500]
- % activity [1]: 93%
- % activity [3]: 20%
- % activity [4]: 23%
- % activity [5]: 14%
- % activity [6]: 37%
- % activity [7]: 19%
- % activity [8]: 5%
- % activity [9]: 174%
- % activity [10]: 65%
- % activity [11]: 18%
- % activity [12]: 87%
- % activity [13]: 24%

Sequence: KAFAKLAARLYRKALARQLGVAA [MMI-0400]
- % activity [1]: 101%
- % activity [2]: 17%
- % activity [3]: 41%
- % activity [4]: 16%
- % activity [5]: 52%
- % activity [6]: 80%
- % activity [7]: 83%
- % activity [8]: 9%
- % activity [9]: 141%
- % activity [10]: 87%
- % activity [11]: 44%
- % activity [12]: 92%
- % activity [13]: 79%

Sequence: YARAAARQARAKALARQLGVAA [MMI-0100]
- % activity [9]: 131%

Sequence: YARAAARQARAKALNRQLGVA (Mammal) [MMI-0200]
- % activity [1]: 83%
- % activity [2]: 95%
- % activity [4]: 74%
- % activity [5]: 88%
- % activity [6]: 94%
- % activity [8]: 36%
- % activity [9]: 132%
- % activity [11]: 98%
- % activity [13]: 97%
